From paper PMC9574934, “Targeting the Phosphatidylserine-Immune Checkpoint with a Small-Molecule Maytansinoid Conjugate” (Journal of Medicinal Chemistry, 2022)
“Also recorded” adds a separate entry of the source.

Key:
[1] = Single intravenous dose pharmacokinetic study
Procedure: (§1) Six-week-old male ICR mice, from the Biolasco Taiwan, were divided into groups of three and dosed at 5 mg/kg intravenously. Blood samples were drawn from each animal at time points of 0.003, 0.083, 0.25, 0.5, 1, 2, 4, 6, 8, and 24 h and stored on ice (0–4 °C). With centrifugation (3000 rpm for 15 min at 4 °C in a Beckman Model Allegra 6R centrifuge), plasma was separated from the blood and stored in frozen conditions (−20 °C). […] The mice were sacrificed, and the blood samples of 0.5 mL each and tumor samples were collected at 0.5, 2, 6, 24, 72, and 168 h after administration. Each time point group included 4 mice. Mouse blood samples were collected in EDTA tubes and centrifuged at 13,000 rpm for 5 min at 4°C for plasma collection. Plasma and the harvested tumor samples were stored at −80°C until use. Fifty microliters of mouse plasma or the sample of tumor homogenated in ddH2O with dilution ratio of 1:3 (w/v) by MiniBeadbeater-16 (BioSpec Products Inc., OK, USA) was mixed with 100 μL of acetonitrile containing 250 ng/mL BPR0L187. The mixture was vortexed for 30 s and then centrifuged at 15000g for 20 min. The supernatant was transferred to a clean tube, and 15 μL of the supernatant was injected onto LC/MS/MS. Plasma samples were analyzed by liquid chromatography tandem mass spectrometry (LC/MS/MS). The chromatographic system Agilent 1200 series LC system and an Agilent ZORBAX Eclipse XDB-C8 column (5 μm, 3.0 × 150 mm) interfaced to an MDS Sciex API4000 tandem mass spectrometer equipped with an ESI in the positive scanning mode at 600 °C was used. Data acquisition was collected via multiple reactions monitoring (MRM). A gradient system was employed for the separation of analyte and IS. Mobile phase A was 10 mM ammonium acetate aqueous solution containing 0.1% formic acid. Mobile phase B was acetonitrile. The gradient profile was as follows: 0.0–1.1 min, 50% B; 1.2–3.7 min, 55%B–90%B; 3.8–5.0 min, 90%B–50%B. The flow rate was 1.5 mL/min. The autosampler was programmed to inject 15 μL of the sample every 5 min.

[2] = tested on: MIA PaCa-2 human xenografts; assay: MIA PaCa-2 xenograft antitumor efficacy; conditions: 1 mg/kg intravenously twice weekly for two weeks (Figure 4)
Procedure: (§2) Cancer cells, suspending in phenol red free medium/DPBS, were mixed with Matrigel (356237, BD Biosciences, San Jose CA, USA) in a 1:1 ratio. Human pancreatic cancer MIA PaCa-2 (1 × 10^6 cells) or triple-negative breast cancer HCC1806 (1 × 10^6cells) cells were subcutaneously inoculated to left flanks of male nude mice 6 weeks old (Biolasco, Taiwan) or female nude mice 6 weeks old by using a 1 mL syringe (needle 24G × 1 in., 0.55 × 25 mm; TERUMO). Tumor dimensions were measured twice a week with an electronic caliper (FOW54-200-777, PRO-MAX, Newton, Massachusetts, USA), and the volume of the subcutaneously growing tumor in mm^3 was calculated by the following formula: volume = (length × width[2])/2. Conjugates were formulated 10% DMA/20% Cremophor EL/70% injectable solution of 5% dextrose (D5W) for treating MIA PaCa-2 and HCC1806 xenograft tumors. […] Body weight of the mice and tumor volume were measured twice weekly.

[3] = rats, 1 mg/kg i.v. once a week for 4 weeks
Procedure: The animal body weights were measured daily during the study period. At the end of the study on day 29, all the animals were euthanized with 100% CO2 and sacrificed for organ harvest followed by organ weight measurements and for blood sample collection followed by hematology and serum chemistry assays. Hematology and serum chemistry parameters were determined using a HEMAVET 950 automated analyzer (Drew Scientific, Santa Clara, CA, USA) and a FUJI DRI-CHEM NX500 automated analyzer (FUJIFILM, Tokyo, Japan), respectively.

[4] = tested on: immunogenic gene expression in the TME; conditions: treated HCC tumor tissue vs vehicle
Procedure: (§3) In addition, a previously reported oncogene-induced, sorafenib-resistant HCC mouse model[50] was used in the current study to examine the antitumor activities of synthesized compounds. Male C57BL/6j mice 4–5 weeks old were purchased from the National Laboratory Animal Center (Taipei, Taiwan) and kept in the laboratory animal center (LAC) of NHRI. The mice received 2 μg of pCMV(CAT)T7-SB100 (Addgene #34879), 10 μg of pT/Caggs-NRASV12 (Addgene #20205), and 10 μg of pKT2/CLP-AKT-LUC plasmids through hydrodynamic injection and were monitored for tumor growth weekly using IVIS until the development of HCC in the liver. The animal study was reviewed and approved by the NHRI IACUC (Institutional Animal Care and Use Committee). HCC-bearing mice with the total flux from IVIS imaging above 1 × 10^9 photons/s were used for treatment of conjugates. […] Repetitive IVIS imaging was performed to track tumor progression, and tumor tissues of the treated HCC-bearing mice were collected at day 3, day 7, and day 14 post conjugate administrations for histological examination and RNA extraction. The tumor tissues of vehicle-treated HCC-bearing mice were collected at day 14 post treatment to serve as control samples.
The concentration (absorbance at 260 nm) and purity (A260/280 and A260/230 ratios) of the extracted RNA were measured by spectrophotometry, and the integrity of the RNA was further determined by a 2100 Bioanalyzer system (Agilent Technologies). The RNA, hybridized with barcoded probes (NanoString Technologies) provided in the nCounter Mouse PanCancer Immune Profiling panel kit, was then used for measurement of the mRNA expression of 770 genes related to immune responses. Nanostring nSolver 4.0 and nCounter advanced analysis 2.0 software (NanoString Technologies) were used for data processing, immune cell profiling, and pathway scoring according to developer’s instructions.

[5] = Procedure: as §1, with “The chromatographic system Agilent 1200 series LC system and an Agilent ZORBAX Eclipse XDB-C8 column (5 μm, 3.0 × 150 mm) interfaced to an MDS Sciex API4000 tandem mass spectrometer equipped with an ESI in the positive scanning mode at 600 °C was used. Data acquisition was collected via multiple reactions monitoring (MRM). A gradient system was employed for the separation of analyte and IS. Mobile phase A was 10 mM ammonium acetate aqueous solution containing 0.1% formic acid. Mobile phase B was acetonitrile. The gradient profile was as follows: 0.0–1.1 min, 50% B; 1.2–3.7 min, 55%B–90%B; 3.8–5.0 min, 90%B–50%B. The flow rate was 1.5 mL/min. The autosampler was programmed to inject 15 μL of the sample every 5 min.” left out
[6] = Plasma incubation and tumor homogenate cleavage of conjugate; format: in vitro ADME
Source text: Figure 3 In vivo targeting ability, plasma stability, and in vivo biodistribution of modified zinc dipicolylamine conjugates in subcutaneous HCC1806 tumor xenografts. […] (B) In vivo detection of PS-expression in the HCC1806 tumor xenograft model. Representative IVIS images of new Zn11-794 fluorescence probe in mice.

[7] = tested on: ovarian, skin, and oral cancer cell lines; conditions: Figure S2
[8] = tested on: HCC1806 triple-negative breast cancer (TNBC) xenografts
Procedure: as §2

[9] = tested on: sorafenib-resistant hepatocellular carcinoma (HCC) model
Procedure: as §3

[10] = tested on: HCC tumor microenvironment; conditions: HCC model
Procedure: as §3

## CCCCCC(=O)Nc1cccc(CN(Cc2cc(CN(Cc3ccccn3)Cc3cccc(NC(=O)CCCCC)n3)cc(OCCCCN(Cc3ccc(-c4ccccc4)cc3)C(=O)COCCOCCOCC(=O)NCc3ccc(CNC(=O)CCSSCCC(=O)N(C)[C@@H](C)C(=O)O[C@H]4CC(=O)N(C)c5cc(cc(OC)c5Cl)C/C(C)=C/C=C\[C@@H](OC)[C@@]5(O)C[C@H](OC(=O)N5)[C@@H](C)[C@@H]5O[C@@]45C)cc3)c2)Cc2ccccn2)n1.O=[N+]([O-])[O-].O=[N+]([O-])[O-].O=[N+]([O-])[O-].O=[N+]([O-])[O-].[Zn+2].[Zn+2] [Compound 40a]
[1]; 40a compared with conjugates 30 and 36
  decrease in volume distribution (Vss): 5 fold
[1]; intact conjugate, male ICR mice, 5 mg/kg intravenous
  AUC(0-24 hr) Conjugate: 105,599 ng/mL*hr
[1]; male ICR mice, 5 mg/kg intravenous, n = 3
  CL: 0.9 mL/min/kg
[1]; male ICR mice, 5 mg/kg intravenous, n = 3, 5 mg/kg
  Vss: 0.1 L/kg
[1]; released payload 14, male ICR mice, 5 mg/kg intravenous of conjugate
  AUC(0-24 hr) Drug: 305 ng·h/mL
[2]
  antitumor efficacy: potent antitumor efficacies; also recorded: potent and lasting anti-MIA PaCa-2 activity
  body weight change during treatment: without apparent body weight loss
[3]
  BUN and creatinine levels: normal
  GOT and GPT: slightly increased (not significant)
  hematologic (leukocyte, neutrophil, lymphocyte, and platelet) parameters: normal
  organ weights (liver and kidneys): did not alter organ weights
[4]
  gene expression of CCL2: significantly elevated
  gene expression of CCL5 and CXCL10: Significant increases
  gene expression of STAT1: significantly elevated
[4]; n = 3
  T-cell, macrophage, NK cell, chemokine and receptor functions and inflammation score (gene set analysis): striking elevations
[5]; plasma of HCC1806 tumor-bearing mice
  plasma stability in vivo, detection of released 14: negligible detection of 14
[5]; tumor tissue of HCC1806 tumor-bearing mice
  14 released from 40a in the tumor mass: significant time-dependent increase
[6]; plasma
  stability in plasma incubation: stable
[6]; tumor homogenate
  cleavage with tumor homogenates: readily cleaved
[7]
  potency against ovarian, skin, and oral cancer cell lines: highly potent
[8]; intravenous twice per week (Figure 4B)
  antitumor efficacy against HCC1806 TNBC xenografts: potent antitumor efficacy
[8]; larger (400–800 mm^3) tumors, 2.5 mg/kg once per week for three weeks
  efficacy on larger HCC1806 tumors: potent efficacies and shrinkage
[9]; 1 mg/kg i.v. twice weekly for two weeks
  tumor burden by bioluminescence: significant decrease
[9]; 1 mg/kg injected twice weekly for two weeks
  activity against HCC tumor growth: potent activity
[9]; 14 days after treatment
  total liver weight: marked reduction
[10]; 1 mg/kg i.v.
  Ki67 expression in treated tumors: reduction
[10]; IHC staining
  infiltration of Gr-1+ monocytes and polymorphonuclear granulocytes and F4/80+ macrophages: increased infiltration
[10]; days 3, 7, and 14
  cytotoxic CD8+ T-cell infiltration: significant increase
